In paper PMC3558457:

Molecular target: IL-4 receptor α (IL-4Rα) (UniProt P24394)
UniProt P24394, sequence (P24394 26-825): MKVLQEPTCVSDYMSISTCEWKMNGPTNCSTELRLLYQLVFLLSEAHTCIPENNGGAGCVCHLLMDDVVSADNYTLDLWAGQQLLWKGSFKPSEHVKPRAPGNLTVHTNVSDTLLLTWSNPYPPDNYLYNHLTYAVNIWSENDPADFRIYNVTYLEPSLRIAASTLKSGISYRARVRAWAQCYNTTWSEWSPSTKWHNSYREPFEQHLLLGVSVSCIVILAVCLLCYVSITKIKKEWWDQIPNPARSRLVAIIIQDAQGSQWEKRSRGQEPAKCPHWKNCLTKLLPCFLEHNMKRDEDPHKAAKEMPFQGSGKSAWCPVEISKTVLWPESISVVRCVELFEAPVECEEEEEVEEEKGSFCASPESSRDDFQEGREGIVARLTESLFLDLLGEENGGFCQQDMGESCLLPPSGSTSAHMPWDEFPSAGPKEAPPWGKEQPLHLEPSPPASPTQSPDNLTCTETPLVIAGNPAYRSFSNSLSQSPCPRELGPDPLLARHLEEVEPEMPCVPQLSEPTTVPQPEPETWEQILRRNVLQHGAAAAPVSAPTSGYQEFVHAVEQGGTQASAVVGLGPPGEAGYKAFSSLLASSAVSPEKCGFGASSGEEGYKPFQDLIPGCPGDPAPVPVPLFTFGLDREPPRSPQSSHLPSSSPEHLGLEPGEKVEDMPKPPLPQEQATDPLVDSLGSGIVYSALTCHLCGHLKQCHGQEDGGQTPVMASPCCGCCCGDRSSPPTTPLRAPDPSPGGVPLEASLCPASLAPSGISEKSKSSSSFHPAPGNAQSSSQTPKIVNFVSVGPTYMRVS

Substance: Wildtype human IL-4 (from UniProt P05112 25-153) (ligand)
- TF-1 cell proliferation, dose dependency for wild-type human IL-4 (EC50): 10 to 20 pM
